Source: doi:10.1101/481887

Assays:
Gly-C2-iLID = assay: confocal imaging of light-induced recruitment to GUV membranes
[1] = target: COPY^o2 (Atto532-stathmin-Atto647N); assay: other fluorescence titration
phosphorylated COPY^o2 = assay: other fluorescence titration

Substance	Kd (Gly-C2-iLID) [nM]	KD, high affinity site [1] [nM]	KD, low affinity site [1] [nM]	k off,stath (1:1 stathmin-tubulin complex; site not named) [1] [s⁻¹]	k on,stath (1:1 stathmin-tubulin complex; site not named) [1] [s⁻¹]	stoichiometry N [1]	k off,p-stath (1:1 phosphorylated stathmin-tubulin complex; site not named) (phosphorylated COPY^o2) [s⁻¹]	k on,p-stath (1:1 phosphorylated stathmin-tubulin complex; site not named) (phosphorylated COPY^o2) [s⁻¹]
SspB (Stringent starvation protein B) (from UniProt P0AFZ3 1-165) (natural protein)	360	–	–	–	–	–	–	–
α,β-tubulin dimers (from UniProt P02550 1-451; P02554 1-445) (complex)	–	30	2000	0.048	16	2	2.3	1.8
